These results are taken from patent publication US20220281949A1.

Assay [1] concerns the target DR1-restricted TCR HA1.7. The assay is described as follows: flow cytometry: HA1.7-transduced primary CD4+ T cells stained with PE wild-type DR1 dextramer and anti-CD4.
Assay [2] has as its target DR1-restricted TCR HA1.7. The assay is described as follows: flow cytometry: TCR-transduced primary human T cells stained with PE class II dimer and anti-CD4. On the technique in general: Flow cytometry measures light scatter and fluorescence of single cells or particles in a stream.

Consider CLIP, DR1 dextramer (peptide-MHC), for which, in the assay with DR1-restricted TCR HA1.7 [1], the percent of cells in the dextramer+ CD4+ quadrant amounted to 0.1%. As for “Control (DR1 L114W/V143M+2reps dimer) (peptide-MHC)”, the percent of cells in the dimer+ CD4+ quadrant in the assay with DR1-restricted TCR HA1.7 [2] stood at 0.1%.
